Test results as given in patent publication US20210169980A1 (HONG KONG UNIVERSITY OF SCIENCE AND TECHNOLOGY, published 2021).
Read-outs that look alike come from different tables or passages of the source.

Experiments:
[1] = target: T1, LGG-2 (C. elegans, UniProt Q23536 1-130, limits assumed); assay: ITC
T1 construct: also called worm orthologue of LC3
T1 sequence (looked up): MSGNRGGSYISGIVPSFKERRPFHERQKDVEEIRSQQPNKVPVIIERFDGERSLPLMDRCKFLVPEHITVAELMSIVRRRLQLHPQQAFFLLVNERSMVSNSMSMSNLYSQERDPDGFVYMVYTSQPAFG

[2] = target: T2, LC3B (human, UniProt Q9GZQ8 1-125); assay: ITC
[3] = target: T3, LC3C (human, UniProt Q9BXW4 1-126); assay: ITC
[4] = target: GABARAP R67E; assay: ITC
[5] = target: LC3A R70E; assay: ITC
[6] = target: T4, LC3A (human, UniProt Q9H492 1-121); assay: ITC
[7] = target: T2, LC3B; assay: ITC (table of Kd values)
[8] = target: T5, LGG-1 (C. elegans, UniProt Q09490 1-123, limits assumed); assay: ITC (table of Kd values)
T5 construct: Purified protein in the ITC; also called worm orthologue of GABARAP

[9] = target: [..]1 (human, UniProt Q9H0R8 1-117); assay: competition-based ITC (asterisk; legend paragraph 51)
[10] = target: T6, GABARAPL2 (human, UniProt P60520 1-117, limits assumed); assay: as above
T6 construct: also called GATE-16

[11] = target: T7, GABARAP (human, UniProt O95166 1-117, limits assumed); assay: ITC
T7 construct: elsewhere only "mammalian"

[12] = target: T5, LGG-1; assay: ITC
[13] = target: T7, GABARAP; assay: ITC (table of Kd values)
[14] = target: T6, GABARAPL2; assay: ITC
[15] = target: T7, GABARAP; assay: ITC; remark: listed apart in the source
[16] = target: T4, LC3A; assay: ITC; remark: listed apart in the source
[17] = target: T2, LC3B; assay: ITC; remark: listed apart in the source
[18] = target: T3, LC3C; assay: ITC; remark: listed apart in the source
[19] = target: GABARAP R67E; assay: ITC; remark: listed apart in the source
[20] = target: LC3A R70E; assay: ITC; remark: listed apart in the source
[21] = target: T4, LC3A; assay: ITC; remark: listed apart in the source
[22] = target: T1, LGG-2; assay: ITC (table of Kd values)
[23] = target: T7, GABARAP; assay: ITC; remark: listed apart in the source
[24] = target: T4, LC3A; assay: ITC; remark: listed apart in the source
[25] = target: T7, GABARAP; assay: ITC; ratio of the binding to GABARAP against that to LC3A
[26] = target: T7, GABARAP; assay: ITC; without the C-helix extension (LIR-S, aa 448-461)

T5 sequence (Q09490 whole entry): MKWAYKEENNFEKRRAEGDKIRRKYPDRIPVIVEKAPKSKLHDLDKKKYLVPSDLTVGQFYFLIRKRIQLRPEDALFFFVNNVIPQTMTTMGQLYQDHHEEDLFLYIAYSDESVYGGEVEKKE
T7 sequence (O95166 whole entry): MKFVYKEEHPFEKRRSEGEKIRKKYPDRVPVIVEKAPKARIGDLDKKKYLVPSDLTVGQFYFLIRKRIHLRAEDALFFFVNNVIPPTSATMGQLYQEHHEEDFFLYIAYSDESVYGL
T6 sequence (P60520 whole entry): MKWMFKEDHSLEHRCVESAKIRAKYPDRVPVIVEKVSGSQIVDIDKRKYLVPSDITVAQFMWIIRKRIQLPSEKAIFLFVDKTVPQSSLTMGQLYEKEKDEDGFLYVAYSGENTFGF
T3 sequence (Q9BXW4 1-126, form in doubt): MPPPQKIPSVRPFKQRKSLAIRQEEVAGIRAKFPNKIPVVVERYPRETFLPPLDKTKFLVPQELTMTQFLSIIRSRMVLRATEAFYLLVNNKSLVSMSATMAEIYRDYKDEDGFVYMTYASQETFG
GABARAP R67E, sequence (chain, as listed by the source R67E R67E limits assumed): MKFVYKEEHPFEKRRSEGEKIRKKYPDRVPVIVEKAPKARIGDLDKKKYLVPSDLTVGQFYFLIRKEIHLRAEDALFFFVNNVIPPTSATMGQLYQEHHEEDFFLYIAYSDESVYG
LC3A R70E, sequence (chain, as listed by the source R70E R70E limits assumed): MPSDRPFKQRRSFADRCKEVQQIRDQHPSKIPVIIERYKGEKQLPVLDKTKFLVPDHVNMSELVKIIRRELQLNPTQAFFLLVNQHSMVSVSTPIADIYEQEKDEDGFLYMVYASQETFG
[..]1, sequence (Q9H0R8 whole entry): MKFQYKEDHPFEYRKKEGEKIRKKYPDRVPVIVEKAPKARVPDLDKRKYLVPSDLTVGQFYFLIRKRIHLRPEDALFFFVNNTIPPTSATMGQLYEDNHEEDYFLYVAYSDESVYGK

B1: AnkB LIR (AnkB WT peptide, human 440 kD AnkB residues 1588-1614) (peptide)
peptide: VEEEWVIVSDEEIEEARQKAPLEITEY
For B1, the binding result [1] was “binds”, the Kd [2] was 4.2 nM and the Kd [3] was 10.5 nM. For the same binder, the Kd [4] was 56 nM, the Kd [5] was 860 nM and the Kd [6] was 3.6 nM. It also gave a Kd [7] of 4.2 nM, a Kd [8] of 1.2 nM and a Kd [9] of 0.29 nM. The Kd [10] was 0.21 nM.

B2: E1599R (peptide)
peptide: VEEEWVIVSDERIEEARQKAPLEITEY
notes: also called AnkB E1599R
For B2, the Kd [6] was 312 nM and the Kd [11] was 38 nM.

B3: AnkB W1592R (peptide)
peptide: VEEERVIVSDEEIEEARQKAPLEITEY
notes: also called AnkB WR; Trp1592Arg mutant of AnkB LIR
For B3, the binding result [12] was “no binding”, the binding result [1] was “no binding” and the Kd [6] was ~26600 nM. For the same binder, the Kd [11] was > 100000 nM and the Kd [13] was > 100000 nM.

B4: AnkG LIR (AnkG WT peptide, rat 480 kD AnkG residues 1985-2010) (peptide)
peptide: PEDDWTEFSSEEIREARQAAASHAPS
Work on B4 yielded a Kd [14] of ~40 nM, a Kd [15] of ~2.6 nM and a Kd [16] of 546 nM. The Kd [17] was 339 nM, the Kd [18] was 2930 nM and the Kd [19] was 114 nM. The binding result [20] was “no binding”, the Kd [21] was 546 nM and the Kd [7] was 339 nM. It also gave a Kd [8] of 1.6 nM and a Kd [22] of 210 nM.

B5: A2000Q (peptide)
peptide: PEDDWTEFSSEEIREQRQAAASHAPS
notes: also called AnkG A2000Q
B5 showed a Kd [21] of 8200 nM and a Kd [23] of 741 nM.

B6: W1989R (peptide)
peptide: PEDDRTEFSSEEIREARQAAASHAPS
notes: Untagged peptide used in ITC; m22 is its mCherry fusion; also called AnkG W1989R; AnkG WR
With B6 the binding result [21] was “no binding”, the Kd [23] was ~12800 nM and the binding result [7] was “no binding”. B6: no binding [8]; no binding [22].

B7: AnkG E1991R (modified from rat 480 kD AnkG residues 1985-2010) (peptide)
peptide: PEDDWTRFSSEEIREARQAAASHAPS
notes: also called AnkG ER; Glu1991Arg AnkG LIR
B7 was tested, and the “fold lower affinity against AnkG LIR WT” value [24] was ~10 fold, the “fold weaker binding against LGG-1” value [1] was ~1000 fold and the Kd [21] was 7190 nM. The Kd [23] was 6.9 nM, the Kd [8] was 8.5 nM and the Kd [22] was 8470 nM. The “selectivity between GABARAP and LC3A” value [25] was ~1000 fold.

B8: E1996R (peptide)
peptide: PEDDWTEFSSERIREARQAAASHAPS
notes: also called AnkG E1996R
Work on B8 yielded a Kd [21] of ~100000 nM and a Kd [23] of 398 nM.

B9: I1997Q (peptide)
peptide: PEDDWTEFSSEEQREARQAAASHAPS
notes: also called AnkG I1997Q
In the case of B9, the Kd [21] is reported as ~12500 nM and the Kd [23] is reported as 68 nM.

B10: AnkG LIR C-helix alone (aa 1993-2010) (peptide)
peptide: SSEEIREARQAAASHAPS
B10: no binding [15]; no binding [21].

B11: AnkG LIR construct "1985-2000" (aa 2001-2010 truncated) (peptide)
peptide: PEDDWTEFSSEEIREA
In the case of B11, the “fold decrease of binding against AnkG LIR (aa 1985-2010)” value [15] is reported as ~200 fold, the Kd [21] is reported as 7410 nM and the Kd [23] is reported as 510 nM.

B12: human FAM134B LIR without the C-helix extension (LIR-S, aa 448-461) (peptide, UniProt Q9H6L5 448-461, looked up)
peptide: DTEEGDDFELLDQS
notes: range 448-461; also called FAM134B LIR-S
For B12, the Kd [26] was 704 nM.
